Test results published in the supplement of paper PMC10724198.
± gives the standard deviation of the averaged measurements.

Tests used:
[1] = system: Saccharomyces cerevisiae; assay: protein stability index of tFT-peptide fusion (C-terminal peptide) (PSI (0-1 scale)); higher = more stable (slower turnover)
Procedure: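 MPS profiling in S. cerevisiae of the tFT-X12 degron library: putative degron peptides plus stable controls, 12 aa, fused to the C-terminus of a sfGFP-mCherry timer. Cells are FACS-sorted into 8 mCherry/sfGFP bins and deep-sequenced. PSI runs from 0 (unstable) to 1 (stable). Backgrounds are wild type, das1Δ and doa10Δ at 30 °C, and wild type, das1Δ, cdc34-1 and cdc53-1 at 37 °C; 2-3 technical replicates each.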

[2] = system: Saccharomyces cerevisiae; assay: as above; details: genetic background: wild type; temperature: 30 C
[3] = genetic background: cdc34-1, temperature: 37 C
[4] = genetic background: cdc53-1, temperature: 37 C
[5] = genetic background: das1 deletion, temperature: 30 C
[6] = genetic background: das1 deletion, temperature: 37 C
[7] = genetic background: doa10 deletion, temperature: 30 C
[8] = genetic background: wild type, temperature: 30 C
[9] = genetic background: wild type, temperature: 37 C
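Also: PSI is a weighted mean of sequencing reads over stability bins, variants kept only with over 10 reads, mCherry proximal and sfGFP distal, peptide attached via GGGS linker.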

Sequence | protein stability index [1, 3] | protein stability index [1, 4] | protein stability index [1, 5] | protein stability index [1, 6] | protein stability index [1, 7] | protein stability index [1, 8] | protein stability index [1, 9] | protein stability index [2]
SDAIKITFIIHN | 0.687 ± 0.043 | 0.632 ± 0.024 | 0.59 ± 0.012 | 0.667 ± 0.016 | 0.425 ± 0.01 | 0.46 ± 0.009 | 0.586 ± 0.0065 | 0.473 ± 0.062
SFFFLILFLFRD | 0.372 ± 0.11 | 0.459 ± 0.04 | 0.315 ± 0.029 | 0.484 ± 0.014 | 0.318 ± 0.019 | 0.299 ± 0.03 | 0.466 ± 0.04 | 0.385 ± 0.053
SFLACFVLAFFC | 0.4055 ± 0.00023 | 0.478 ± 0.018 | 0.346 ± 0.032 | 0.475 ± 0.011 | 0.24 ± 0.0037 | 0.281 ± 0.017 | 0.411 ± 0.022 | 0.372 ± 0.014
SFPPLPPLPLPP | 0.64 ± 0.032 | 0.688 ± 0.0089 | 0.578 ± 0.0094 | 0.6778 ± 0.0031 | 0.594 ± 0.014 | 0.5917 ± 0.0043 | 0.6445 ± 0.0054 | 0.571 ± 0.2
SFTRYIFFLMFF | 0.438 ± 0.051 | 0.475 ± 0.037 | 0.417 ± 0.023 | 0.585 ± 0.021 | 0.4089 ± 0.0013 | 0.325 ± 0.017 | 0.456 ± 0.0069 | 0.355 ± 0.015
SGPCSPRNLRRL | 0.699 ± 0.032 | 0.754 ± 0.012 | 0.621 ± 0.017 | 0.736 ± 0.019 | 0.651 ± 0.015 | 0.647 ± 0.03 | 0.719 ± 0.02 | 0.281 ± 0.018
SGPTIRRRLFVH | 0.647 ± 0.021 | 0.735 ± 0.02 | 0.621 ± 0.012 | 0.7286 ± 0.0068 | 0.148 ± 0.018 | 0.17 ± 0.043 | 0.347 ± 0.019 | 0.333 ± 0.0092
SLIDPLGNLFNS | 0.71 ± 0.015 | 0.756 ± 0.038 | 0.682 ± 0.039 | 0.756 ± 0.028 | 0.672 ± 0.024 | 0.678 ± 0.014 | 0.72 ± 0.018 | 0.752 ± 0.041
SLIFLLVLILSL | 0.412 ± 0.023 | 0.51 ± 0.05 | 0.369 ± 0.038 | 0.493 ± 0.029 | 0.364 ± 0.048 | 0.347 ± 0.036 | 0.483 ± 0.046 | 0.363 ± 0.074
SLLFLVLFFPLV | 0.4885 ± 0.00069 | 0.524 ± 0.025 | 0.42 ± 0.034 | 0.55 ± 0.029 | 0.456 ± 0.019 | 0.43 ± 0.03 | 0.506 ± 0.0075 | 0.432 ± 0.023
SLPCCKVVFCVI | 0.5166 ± 0.001 | 0.554 ± 0.023 | 0.417 ± 0.038 | 0.575 ± 0.01 | 0.332 ± 0.0048 | 0.355 ± 0.036 | 0.515 ± 0.015 | 0.4491 ± 0.003
SLVIRLNIRLIL | 0.462 ± 0.021 | 0.435 ± 0.0077 | 0.423 ± 0.03 | 0.414 ± 0.034 | 0.329 ± 0.0061 | 0.325 ± 0.018 | 0.361 ± 0.019 | 0.394 ± 0.011
SPCSNFLECLSF | 0.714 ± 0.03 | 0.7431 ± 0.0018 | 0.643 ± 0.0079 | 0.729 ± 0.017 | 0.626 ± 0.025 | 0.641 ± 0.017 | 0.733 ± 0.0071 | 0.561 ± 0.11
SPGFVLLAVLVI | 0.1636 ± 0.0011 | 0.235 ± 0.0088 | 0.231 ± 0.029 | 0.356 ± 0.016 | 0.194 ± 0.002 | 0.214 ± 0.025 | 0.323 ± 0.04 | 0.347 ± 0.086
SPGGALVFFVLV | 0.552 ± 0.038 | 0.5998 ± 0.0056 | 0.44 ± 0.023 | 0.617 ± 0.0083 | 0.391 ± 0.012 | 0.431 ± 0.027 | 0.606 ± 0.017 | 0.467 ± 0.0054
SPRSIALLHLFS | 0.648 ± 0.063 | 0.708 ± 0.051 | 0.655 ± 0.02 | 0.705 ± 0.062 | 0.154 ± 0.017 | 0.213 ± 0.031 | 0.327 ± 0.024 | 0.3 ± 0.044
SPSRAGQHLYYP | 0.684 ± 0.028 | 0.7347 ± 0.0032 | 0.64 ± 0.016 | 0.7334 ± 0.0037 | 0.636 ± 0.0095 | 0.662 ± 0.011 | 0.6953 ± 0.0059 | 0.718 ± 0.034
SPTRTCTAIRTP | 0.689 ± 0.068 | 0.7392 ± 0.0058 | 0.666 ± 0.022 | 0.708 ± 0.0022 | 0.683 ± 0.057 | 0.676 ± 0.027 | 0.671 ± 0.0068 | 0.712 ± 0.034
SRFFSSSFYRLC | 0.675 ± 0.036 | 0.7576 ± 0.0075 | 0.661 ± 0.012 | 0.777 ± 0.018 | 0.176 ± 0.0056 | 0.198 ± 0.036 | 0.485 ± 0.042 | 0.324 ± 0.046
SRGGVFYVRIHS | 0.647 ± 0.043 | 0.709 ± 0.014 | 0.628 ± 0.016 | 0.697 ± 0.018 | 0.239 ± 0.0035 | 0.279 ± 0.029 | 0.4917 ± 0.0011 | 0.455 ± 0.051
